Experimental findings from US20120196307 are described below.

Data set [1] deals with CRMP-2 C-terminal 53-mer (500-552) synthetic peptide, Q16555.
Data set [2] addresses collapsin response mediator protein-2, intact (rat), P47942.
The target in data set [3] is T1, synaptotagmin-1, intact 65 kDa protein (rat), P21707.
T1 chain: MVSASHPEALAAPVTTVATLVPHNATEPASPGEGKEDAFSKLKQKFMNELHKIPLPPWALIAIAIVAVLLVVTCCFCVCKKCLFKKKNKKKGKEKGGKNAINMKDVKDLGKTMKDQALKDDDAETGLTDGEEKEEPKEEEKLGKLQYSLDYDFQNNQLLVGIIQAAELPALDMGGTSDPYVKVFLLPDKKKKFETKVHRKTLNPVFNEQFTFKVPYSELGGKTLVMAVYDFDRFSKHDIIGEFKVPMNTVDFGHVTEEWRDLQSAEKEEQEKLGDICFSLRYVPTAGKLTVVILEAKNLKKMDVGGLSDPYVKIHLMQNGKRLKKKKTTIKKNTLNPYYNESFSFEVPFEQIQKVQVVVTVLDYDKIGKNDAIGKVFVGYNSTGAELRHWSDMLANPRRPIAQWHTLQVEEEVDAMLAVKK

B1: rat recombinant calpain-2 (Calbiochem) (protein)
chain: MAGIAMKLAKDREAAEGLGSHERAIKYLNQDYETLRNECLEAGALFQDPSFPALPSSLGFKELGPYSSKTRGIEWKRPTEICADPQFIIGGATRTDICQGALGDCWLLAAIASLTLNEEILARVVPLDQSFQENYAGIFHFQFWQYGEWVEVVVDDRLPTKDGELLFVHSAEGSEFWSALLEKAYAKINGCYEALSGGATTEGFEDFTGGIAEWYELRKPPPNLFKIIQKALEKGSLLGCSIDITSAADSEAVTYQKLVKGHAYSVTGAEEVESSGSLQKLIRIRNPWGQVEWTGKWNDNCPSWNTVDPEVRANLTERQEDGEFWMSFSDFLRHYSRLEICNLTPDTLTCDSYKKWKLTKMDGNWRRGSTAGGCRNYPNTFWMNPQYLIKLEEEDEDDEDGERGCTFLVGLIQKHRRRQRKMGEDMHTIGFGIYEVPEELTGQTNIHLSKNFFLTTRARERSDTFINLREVLNRFKLPPGEYVLVPSTFEPHKNGDFCIRVFSEKKADYQTVDDEIEANIEEIEANEEDIGDGFRRLFAQLAGEDAEISAFELQTILRRVLAKREDIKSDGFSIETCKIMVDMLDEDGSGKLGLKEFYILWTKIQKYQKIYREIDVDRSGTMNSYEMRKALEEAGFKLPCQLHQVIVARFADDELIIDFDNFVRCLVRLEILFKIFKQLDPENTGTIQLDLISWLSFSVL
With B1, the “in vitro digestion of the synthetic peptide, Coomassie gel and N-terminal microsequencing” value in data set [1] was “Purified CRMP-2 C-terminal 53-mer (500-552) peptide was synthesized and digested by rat calpain-2”.

B2: recombinant human caspase-3 (Chemicon) (protein)
chain: SGISLDNSYKMDYPEMGLCIIINNKNFHKSTGMTSRSGTDVDAANLRETFRNLKYEVRNKNDLTREEIVELMRDVSKEDHSKRSSFVCVLLSHGEEGIIFGTNGPVDLKKITNFFRGDRCRSLTGKPKLFIIQACRGTELDCGIETDSGVDDDMACHKIPVEADFLYAYSTAPGYYSWRNSKDGSWFIQSLCAMLKQYADKLEFMHILTRVNRKVATEFESFSFDATFHAKKQIPCIVSMLTKELYFYH
For B2, the “in vitro protease digestion of naive brain lysate, Western blot” value in data set [2] is “caspase-3 treatment did not produce the 55 kDa BDP”. In data set [3], the “in vitro protease digestion of lysate, Western blot” value is given as “Syt1 was resistant to caspase-3 in the same samples”.

B3: human calpain-2 (Calbiochem, Cat#208715) (protein)
chain: AGIAAKLAKDREAAEGLGSHDRAIKYLNQDYEALRNECLEAGTLFQDPSFPAIPSALGFKELGPYSSKTRGIEWKRPTEICADPQFIIGGATRTDICQGALGDCWLLAAIASLTLNEEILARVVPLNQSFQENYAGIFHFQFWQYGEWVEVVVDDRLPTKDGELLFVHSAEGSEFWSALLEKAYAKINGCYEALSGGATTEGFEDFTGGIAEWYELKKPPPNLFKIIQKALQKGSLLGCSIDITSAADSEAITFQKLVKGHAYSVTGAEEVESNGSLQKLIRIRNPWGEVEWTGRWNDNCPSWNTIDPEERERLTRRHEDGEFWMSFSDFLRHYSRLEICNLTPDTLTSDTYKKWKLTKMDGNWRRGSTAGGCRNYPNTFWMNPQYLIKLEEEDEDEEDGESGCTFLVGLIQKHRRRQRKMGEDMHTIGFGIYEVPEELSGQTNIHLSKNFFLTNRARERSDTFINLREVLNRFKLPPGEYILVPSTFEPNKDGDFCIRVFSEKKADYQAVDDEIEANLEEFDISEDDIDDGFRRLFAQLAGEDAEISAFELQTILRRVLAKRQDIKSDGFSIETCKIMVDMLDSDGSGKLGLKEFYILWTKIQKYQKIYREIDVDRSGTMNSYEMRKALEEAGFKMPCQLHQVIVARFADDQLIIDFDNFVRCLVRLETLFKIFKQLDPENTGTIELDLISWLCFSVL
With B3, the “in vitro protease digestion of lysate, Western blot” value in data set [3] was “Syt1-blot also showed a calpain-concentration-dependent reduction of intact Syt1. Calpain treatment also produced a BDP identical to the 33 Syt1-fragment produced following TBI”.

B4: human erythrocyte calpain-1 (protein)
chain: SEEIITPVYCTGVSAQVQKQRARELGLGRHENAIKYLGQDYEQLRVRCLQSGTLFRDEAFPPVPQSLGYKDLGPNSSKTYGIKWKRPTELLSNPQFIVDGATRTDICQGALGDCWLLAAIASLTLNDTLLHRVVPHGQSFQNGYAGIFHFQLWQFGEWVDVVVDDLLPIKDGKLVFVHSAEGNEFWSALLEKAYAKVNGSYEALSGGSTSEGFEDFTGGVTEWYELRKAPSDLYQIILKALERGSLLGCSIDISSVLDMEAITFKKLVKGHAYSVTGAKQVNYRGQVVSLIRMRNPWGEVEWTGAWSDSSSEWNNVDPYERDQLRVKMEDGEFWMSFRDFMREFTRLEICNLTPDALKSRTIRKWNTTLYEGTWRRGSTAGGCRNYPATFWVNPQFKIRLDETDDPDDYGDRESGCSFVLALMQKHRRRERRFGRDMETIGFAVYEVPPELVGQPAVHLKRDFFLANASRARSEQFINLREVSTRFRLPPGEYVVVPSTFEPNKEGDFVLRFFSEKSAGTVELDDQIQANLPDEQVLSEEEIDENFKALFRQLAGEDMEISVKELRTILNRIISKHKDLRTKGFSLESCRSMVNLMDRDGNGKLGLVEFNILWNRIRNYLSIFRKFDLDKSGSMSAYEMRMAIESAGFKLNKKLYELIITRYSEPDLAVDFDNFVCCLVRLETMFRFFKTLDTDLDGVVTFDLFKWLQLTMFA
With B4, the “in vitro protease digestion of lysate, Western blot” value in data set [3] is “Digestion with calpain-1 showed identical results (data not shown)”.
